Test results taken from patent US20080045454A1 (TRUSTEES OF COLUMBIA UNIVERSITY IN THE CITY OF NEW YORK, published 2008).

T1: TRIMStop fused to lexA (owl monkey (Aotus trivirgatus))
T1 construct: Yeast two-hybrid bait; also called LexA-TRIMStop; not shown: LexA, fusion partner of the yeast two-hybrid system
T1 chain: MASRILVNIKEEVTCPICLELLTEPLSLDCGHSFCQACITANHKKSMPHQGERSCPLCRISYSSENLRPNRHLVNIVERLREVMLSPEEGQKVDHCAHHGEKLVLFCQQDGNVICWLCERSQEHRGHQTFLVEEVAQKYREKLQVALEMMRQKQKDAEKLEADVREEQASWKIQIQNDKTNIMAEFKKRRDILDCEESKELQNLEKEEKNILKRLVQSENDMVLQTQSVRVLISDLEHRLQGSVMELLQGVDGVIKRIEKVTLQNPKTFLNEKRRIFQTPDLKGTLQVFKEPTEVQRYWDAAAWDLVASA

B1: TRIMStop expressed in fusion with the B42 activation domain (other, not shown: large carriers)
chain: T1 chain
notes: also called B42-TRIMStop
B2: 3× FLAG N-terminal-tagged TRIMStop (other)
chain: T1 chain
notes: also called FLAG-TRIMStop; not shown: 3x FLAG tag of p3xFLAG.CMV (SIGMA)

What was measured:
TRIMStop fused to lexA = target: T1, TRIMStop fused to lexA; assay: yeast two-hybrid, β-galactosidase reporter
Procedure: (A) Yeast two-hybrid system. […] Pairs of fused LexA and B42 expression plasmids were transformed into Saccharomyces cerevisiae strain EGY48. For each transformant, β-galactosidase activity for three colonies is reported in Miller units with the standard deviation. (B) Binding in mammalian cells.
Fusions of these proteins with LexA and/or B42 were constructed, and the interactions between fusion proteins were analyzed using a previously described system (37) in which reporter gene β-galactosidase activity was assessed with a quantitative assay (43).

TRIMCyp fused to lexA = target: T2, TRIMCyp fused to lexA (owl monkey (Aotus trivirgatus)); assay: yeast two-hybrid, β-galactosidase reporter
T2 construct: Yeast two-hybrid bait; also called LexA-TRIMCyp; not shown: LexA, fusion partner of the yeast two-hybrid system

[1] = target: T3, GST-TRIM5αhu (glutathione S-transferase fusion with full-length human TRIM5α) (human, UniProt Q9C035 2-493); assay: immunofluorescence colocalization in cotransfected TE671 cells
T3 construct: mature; Produced in 293T cells; also called GST-T5α; not shown: glutathione S-transferase (GST)
T3 sequence (Q9C035 2-493): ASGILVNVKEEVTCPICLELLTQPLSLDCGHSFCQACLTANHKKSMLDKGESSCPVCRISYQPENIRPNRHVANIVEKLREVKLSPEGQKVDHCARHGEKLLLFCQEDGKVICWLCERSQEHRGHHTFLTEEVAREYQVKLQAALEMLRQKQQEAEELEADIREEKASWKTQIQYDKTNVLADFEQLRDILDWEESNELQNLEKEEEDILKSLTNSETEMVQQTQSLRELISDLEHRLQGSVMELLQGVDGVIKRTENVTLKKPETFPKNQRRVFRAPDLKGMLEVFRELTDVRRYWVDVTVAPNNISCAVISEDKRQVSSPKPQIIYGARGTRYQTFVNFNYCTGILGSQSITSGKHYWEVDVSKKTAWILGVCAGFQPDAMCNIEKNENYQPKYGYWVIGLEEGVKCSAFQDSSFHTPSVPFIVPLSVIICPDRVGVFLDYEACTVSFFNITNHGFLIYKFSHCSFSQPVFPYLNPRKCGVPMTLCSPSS

Binder	binding result (TRIMStop fused to lexA)	binding result (TRIMCyp fused to lexA)	binding result [1]
B1	binds	binds	
B2			binds
